Data from article PMC8795421 (2022).

B1: Biotinylated recombinant CD97, N-terminal extracellular domain (residues 24-540) with Fc domain and avidin tag (Fc fusion)
chain: RGCARWCPQNSSCVNATACRCNPGFSSFSEIITTPTETCDDINECATPSKVSCGKFSDCWNTEGSYDCVCSPGYEPVSGAKTFKNESENTCQDVDECQQNPRLCKSYGTCVNTLGSYTCQCLPGFKFIPEDPKVCTDVNECTSGQNPCHSSTHCLNNVGSYQCRCRPGWQPIPGSPNGPNNTVCEDVDECSSGQHQCDSSTVCFNTVGSYSCRCRPGWKPRHGIPNNQKDTVCEDMTFSTWTPPPGVHSQTLSRFFDKVQDLGRDSKTSSAEVTIQNVIKLVDELMEAPGDVEALAPPVRHLIATQLLSNLEDIMRILAKSLPKGPFTYISPSNTELTLMIQERGDKNVTMGQSSARMKLNWAVAAGAEDPGPAVAGILSIQNMTTLLANASLNLHSKKQAELEEIYESSIRGVQLRRLSAVNSIFLSHNNTKELNSPILFAFSHLESSDGEAGRDPPAKDVMPGPRQELLCAFWKSDSDRGGHWATEGCQVLGSKNGSTTCQCSHLSSFAILMAHY
modifications: biotin (in situ biotinylation by BirA-ER during expression)
B2: DAF-Fc (decay accelerating factor, DAF/CD55, fused to the human IgG1 Fc region) (Fc fusion)
chain: DCGLPPDVPNAQPALEGRTSFPEDTVITYKCEESFVKIPGEKDSVICLKGSQWSDIEEFCNRSCEVPTRLNSASLKQPYITQNYFPVGTVVEYECRPGYRREPSLSPKLTCLQNLKWSTAVEFCKKKSCPNPGEIRNGQIDVPGGILFGATISFSCNTGYKLFGSTSSFCLISGSSVQWSDPLPECREIYCPAPPQIDNGIIQGERDHYGYRQSVTYACNKGFTMIGEHSIYCTVNNDEGEWSGPPPECRGKSLTSKVPPTVQKPTTVNVPTTEVSPTSQKTTTKTTTPNAQATRSTPVSRTTKHFHETTPNKGSGTTS

What was measured:
Test in all cases: BLI
CD97 Ab with known Kd = biological target: CD97 Ab with known Kd
[1] = biological target: CD97 Ab with same binding site as DAF-Fc
[2] = biological target: B1

Kd (CD97 Ab with known Kd) [nM] | Kd [1] [nM] | Kd [2] [nM] | Binder
7700 | 4.5 | – | B1
– | – | 340 | B2
